The binders below were run against T1, EpCAM-camFc(人EpCAM与羊驼Fc重组蛋白) (human, UniProt P16422 24-265) (assay: phage ELISA, EpCAM-camFc coated, anti-M13 HRP).
T1 construct: Recombinant fusion of human EpCAM and alpaca Fc; not shown: alpaca Fc
T1 sequence (looked up): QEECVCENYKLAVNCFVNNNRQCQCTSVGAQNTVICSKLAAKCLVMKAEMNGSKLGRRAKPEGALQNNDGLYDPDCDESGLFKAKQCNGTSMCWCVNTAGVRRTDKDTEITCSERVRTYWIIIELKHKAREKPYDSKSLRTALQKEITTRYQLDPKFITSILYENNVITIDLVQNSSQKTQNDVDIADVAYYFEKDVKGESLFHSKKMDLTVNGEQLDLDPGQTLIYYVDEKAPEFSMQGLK

| Binder | binding result |
| --- | --- |
| Anti-EpCAM-VHH SEQ ID NO 1 (phage-displayed) (VHH, fusion to the phage coat protein is not described) VHH: DVQLVESGGGSVQSGGSLRLSCAASGYTYRRYYMGWFRQAPGEQREGVAVINNDGRTNYADSVKGRFRISRDNAENTLHLEMNSLKPEDTAMYYCAATGNILPPMTAVPPLGRQWYPYWGRGTLVTVSS | binds |
| Anti-EpCAM-VHH SEQ ID NO 4 (phage-displayed) (VHH, fusion to the phage coat protein is not described) VHH: QVQLVESGGGSVQAGGSLRLSCVATGFTISRKCMGWFREAPGKKREVIATINTGSSSPYYADGVKGRFTISQDNAKNTVYLQMNSLKPEDTAMYYCAATKGVVVGTGYCGGPYVERPNSAYWGQGTQVTVSS | binds |
| Anti-EpCAM-VHH SEQ ID NO 7 (phage-displayed) (VHH, fusion to the phage coat protein is not described) VHH: HVQLVESGGGSVQAGGSLKLSCAASGSIFSGSIFSRCGMRWYRQAPGKERELVSSTSKDGFTSYTDSVKGRFTISQDNANNTLYLQMSSLKTEDTAVYSCAAICAVGGYSLSTYTYWGQGTQVTVSS | binds |
| Anti-EpCAM-VHH SEQ ID NO 5 (phage-displayed) (VHH, fusion to the phage coat protein is not described) VHH: DVQLVESGGGSVQAGRSLRLSCELSDYTWSTVCMGWFRQAPGKEREGVAVIYTRSGGTTYADSAKGRFTISRDNAKDTLYLQMDSLKPEDTAMYYCAAGPLYDGRCTYRSPAFHYWGQGTQVTVSS | binds |
| Anti-EpCAM-VHH SEQ ID NO 6 (phage-displayed) (VHH, fusion to the phage coat protein is not described) VHH: DVQLVESGGGSAQAGGSLRLSCAASGPTSSLRTMGWFRQASGKERERVAVIWDGRTTDYDDSVQDRFTISQDNAKSTVYLQMNTLKPEDTAMYYCAASPRIVPFASTYFQHWGQGTQVTVSS | binds |
| Anti-EpCAM-VHH SEQ ID NO 2 (phage-displayed) (VHH, fusion to the phage coat protein is not described) VHH: HVQLVESGGGSVQSGGSLRLSCAASGYAVKNCMGWFRQAPGKEREGVAVINRNGITTYADSVKGRFTISQDKDKNTLDLQMNSLKPEDTAMYYCAATPTLLTIPARFLCDVRNPSGFTDWGQGTLVTVSS | binds |
| Anti-EpCAM-VHH SEQ ID NO 9 (phage-displayed) (VHH, fusion to the phage coat protein is not described) VHH: HVQLVESGGGSVQSGGSLRLSCAVSGYAYSSLAWFRQAPGKEREGVAALLTAIGGPTRTTYADSVKGRLAISQDHAKNTLYLQMSSLKPEDTAMYYCAAGRPAGTPRWLLLAPRDYNYWGQGTQVTVSS | binds |
| Anti-EpCAM-VHH SEQ ID NO 3 (phage-displayed) (VHH, fusion to the phage coat protein is not described) VHH: QVQLVESGGGSVQAGGSLRLSCVVSAYSAYTYKTMCMGWFRQAPGKEREGVAAIYRGGLNTYYADSVKGRFIISRDNAESTMYLQMNSLKPEDTAMYYCAADWLRGDDCNIGANFDYWGQGTQVTVSS | binds |
| Anti-EpCAM-VHH SEQ ID NO 8 (phage-displayed) (VHH, fusion to the phage coat protein is not described) VHH: EVQLVESGGDSVQAGGSLRLSCAASGYSPGSYCMGWFRQAPGKERERVAIIESRGTVTYVDSVKGRFTISKDNAKNTLYLQMNSLKPEDTAMYYCAASRPWSGVRCLHDKYDYWGQGTQVTVSS | binds |
